Measured values published in PMC3540977 (Peptides, 2012).

Test system: bovine brain microvessel endothelial cells (BBMECs)
Test: Metabolism of Dyn A 1–17 in the presence of BBMECs
Type: in vitro ADME
Conditions: incubation with bovine brain microvessel endothelial cells, LC-MS/MS

Question: Dynorphin A 1–17 [Dyn A 1–17] was tested. Which “metabolite identified in the presence of BBMECs” value did it give?
Answer: Dyn A 1–6 is identified as a metabolite
